In IntAct's records for PubMed 31696227:

B1: Transcription factor ATOH7 (Homo sapiens), Q8N100 (parent)
chain: MKSCKPSGPPAGARVAPPCAGGTECAGTCAGAGRLESAARRRLAANARERRRMQGLNTAFDRLRRVVPQWGQDKKLSKYETLQMALSYIMALTRILAEAERFGSERDWVGLHCEHFGRDHYLPFPGAKLPGESELYSQRLFGFQPEPFQMAT
partner: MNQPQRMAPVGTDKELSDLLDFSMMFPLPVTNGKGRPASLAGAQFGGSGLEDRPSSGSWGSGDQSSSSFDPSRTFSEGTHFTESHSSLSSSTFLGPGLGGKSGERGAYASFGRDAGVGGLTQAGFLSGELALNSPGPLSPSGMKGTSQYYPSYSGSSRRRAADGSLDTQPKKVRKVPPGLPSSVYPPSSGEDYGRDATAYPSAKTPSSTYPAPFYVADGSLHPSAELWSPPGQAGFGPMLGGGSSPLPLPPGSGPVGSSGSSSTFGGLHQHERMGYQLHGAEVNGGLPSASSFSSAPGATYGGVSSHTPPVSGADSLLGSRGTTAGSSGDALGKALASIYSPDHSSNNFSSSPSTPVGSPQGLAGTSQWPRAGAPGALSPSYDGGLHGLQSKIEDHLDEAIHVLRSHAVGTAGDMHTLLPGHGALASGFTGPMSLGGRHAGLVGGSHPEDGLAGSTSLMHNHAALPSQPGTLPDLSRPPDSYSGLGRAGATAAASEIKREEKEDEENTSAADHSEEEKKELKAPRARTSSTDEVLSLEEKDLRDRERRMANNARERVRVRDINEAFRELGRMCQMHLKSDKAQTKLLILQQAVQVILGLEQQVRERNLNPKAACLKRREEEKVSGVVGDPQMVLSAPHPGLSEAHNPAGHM

Variants of: B1
Conditions: with TCF3, P15923-2

Variant	effect of a mutation on the interaction
A59G	decreasing interaction strength
A59T	disrupting interaction strength

Other lines, results leading:

effect of a mutation on the interaction	Variant
disrupting interaction strength	A59V
disrupting interaction strength	N46H
